The source of these data is US12281162 (LANOVA MEDICINES DEVELOPMENT, dated 2025).

The labels stand for the following.
B1: 58-H2L2 (antibody, V domains shown)
VH: QVQLVQSGAEVKKPGASVKVSCKASGYSFTGYYIHWVRQAPGQGLEWIGYISSYNAATSFNQKFKGRVTFTVDTSTSTVYMELSSLRSEDTAVYYCARTELRGPWFAYWGQGTLVTVSS
VL: DTQMTQSPSSLSASVGDRVTITCSASSSVSYMNWYQQKPGKAPKRLIYDTSKLASGVPSRFSGSGSGTDYTLTISSLQPEDFATYYCQQWSNNPLTFGQGTKLEIK
notes: humanized 58F9G10, VH v2 x VL v2
B2: 58-H1L2 (antibody, V domains shown)
VH: QVQLVQSGAEVKKPGASVKVSCKASGYSFTGYYIHWVRQAPGQGLEWMGYISSYNAATSFNQKFKGRVTMTRDTSTSTVYMELSSLRSEDTAVYYCARTELRGPWFAYWGQGTLVTVSS
VL: DTQMTQSPSSLSASVGDRVTITCSASSSVSYMNWYQQKPGKAPKRLIYDTSKLASGVPSRFSGSGSGTDYTLTISSLQPEDFATYYCQQWSNNPLTFGQGTKLEIK
notes: humanized 58F9G10, VH v1 x VL v2
B3: 34D3H1 (antibody, V domains shown)
VH: EVHLVESGGDLVKPGGSLKLSCAASGFTFSSYGMSWVRQTPDKRLEWVATISSGGSYTYYPDSVKGRFTISRDNAKNTLNLQMSSLKSEDTAMYYCARQGGDAMDYWGQGTSVTVSS
VL: DIVLTQSPATLSVTPGDSVSLSCRASQSINNNLHWYQQKSHESPRLLIKYASQSISGIPSRFSGSGSGTDFTLSINSVETEDFGMYFCQQSNSRLTFGAGTKLELK
notes: murine antibody from hybridoma supernatant
B4: 37B9C4 (antibody, V domains shown)
VH: EVNLEESGGGLVQPGGSMKLSCVASGFTFSDYWMNWVRQSPEKGLEWVAEIRLKSNNYATHYAESVKGRFTISRDDSKSSVYLQMNNLRAEDTGIYYCTRPLLWFRRYYAMDYWGQGTSVTVSS
VL: DIQMTQTTSSLSASLGDRITISCSASQGISNYLNWYQQKPDGTVKLLIYYTSSLHSGVPSRFSGSGSGTDYSLTISNLEPADIATYYCQQYSKLPFTFGSGTKLEIK
notes: as for B3
B5: 58F9G10 (antibody, V domains shown)
VH: EVQLQQSGPELVKTGASVKISCKASGYSFTGYYIHWVKQSHGKSLEWIGYISCYNGATSFNQKFKGKATFTVDTSSSTAYMQFNSLTSEDSAVYYCARTELRGPWFAYWGQGTLVTVSA
VL: QTVLTQSPAIMSASPGEKVTMTCSASSSVSYMNWYQQKSGTSPKRWIYDTSKLASGVPARFSGSGSGTSYSLTISSMEAEDAATYYCQQWSNNPLTFGAGTKLELK
notes: as for B3
B6: 2D3C12 (antibody, V domains shown)
VH: QVQLQQSGAELVRPGTSVKVSCKASGYAFINYLIEWIKQRPGQGLEWIGMINPGSGGTNYNEKFKDKATLTADKSSSTAYMQLSSLTSDDSAVYFCARNWDVWGQGTTLTVSS
VL: DVVMTQSPLSLPVSLGDQASVSCRSSQSLVHSTGNTYLHWYLQKPGQSPKLLIYKVSNRFSGVPDRFSGSGSGTDFTLKISRVEAEDLGVYFCSQSTHVPWTFGGGTKLEIK
notes: as for B3
B7: 21C3C11B3 (antibody, V domains shown)
VH: QVQLQQSGAELVRPGTSVKVSCKASGYAFINYLIEWIKQRPGQGLEWIGMINPGSGGTNYNEKFKDKATLTADKSSSTAYMQLSSLTSDDSAVYFCARNWDVWGQGTTLTVSS
VL: DVVMTQSPLSLPVSLGDQASVSCRSSQSLVHSTGNTYLHWYLQKPGQSPKLLIYKVSNRFSGVPDRFSGSGSGTDFTLKISRVEAEDLGVYFCSQSTHVPWTFGGGTKLEIK
notes: as for B3
B8: 34D4A10 (antibody, V domains shown)
VH: QVQLQQSGAELVRPGTSVKVSCKASGYAFISYLIEWIKQRPGQGLEWIGMINPGSGGTNYNEKFKDKATLTADKSSSTAYMQLSSLTSDDSAVYFCARNWDVWGQGTTLTVSS
VL: DVVMTQSPLSLPVSLGDQASVSCRSSQSLVHSTGNTYLHWYLQKPGQSPKLLIYKVSNRFSGVPDRFSGSGSGTDFTLKISRVEAEDLGVYFCSQSTHVPWTFGGGTKLEIK
notes: as for B3
B9: 29B2C10 (antibody, V domains shown)
VH: EVQLQQSGPELVKPGASMKLSCKASGYSFTGYTMHWVKQSHGENLEWIGLINPYNGGTNYNQKFKGKATLTVDKSSSTAYMELLSLTSEDSAVYYCSRWGLRRAMDYWGQGTSVTVSS
VL: DIVMTQSQKFMSTSVGDRVSVTCKASQNVGSNVAWYQQKPGQSPKALIYSASYRYSGVPDRFTGNGSGTDFTLTISNVQSEDLAEYFCQQYYNSPWTFGGGTKLEIK
notes: as for B3
B10: 29A7H11H4C12 (antibody, V domains shown)
VH: EVQLQQSGPELVKPGASMKISCKASGYSFTGYTMHWVKQSHGENLEWIGLINPYNGGTNYNQKFKGKATLTVDKSSSTAYMELLSLTSEDSAVYYCSRWGLRRAMDYWGQGTSVTVSS
VL: DIVMTQSQKFMSTSIGDRVSVTCKASQNVGSNVAWYQQKPGQSPKALIYSASYRYSGVPDRFTGNGSGTDFTLTISNVQSEDLAEYFCQQYYNSPWTFGGGTKLEIK
notes: as for B3
B11: 14F3H2 (antibody, V domains shown)
VH: EVQLQQSGPELVKPGASMKISCKASGYSFTGYTMNWVKQSHGKNLEWIGLINPYNGGIRYNQKFKGKATLTVDKSSSTAYMELLSLTSEDSAVYYCARWGLRRAMDYWGQGTSVTVSS
VL: DIVMTQSQKFMSTSVGDRVSVTCKASQNVGTNVAWYQQKPGQSPKALIYSASYRYSGVPDRFTGSGSGTDFTLTISNVQSEDLAEYFCQQYNSSPWTFGGGTKLEIK
notes: as for B3
B12: 26E1D12 (antibody, V domains shown)
VH: EVQLQQSGPELVKPGASMKISCKASGYSFTGYTMNWVKQSHGKNLEWIGLINPYNGGTNYNQKFKGKATLAVDKSSSTAYMDLLSLTSEDSAVYYCSRWGLRRAMDYWGQGTSVTVSS
VL: DIVMTQSQKFMSTSVGDRVSVTCKASQNVGSNVAWYQQKPGQSPKALIYSASYRYSGVPDRFTGSGSGTDFTLTISNVQSEDLAEYFCQQYNNSPWTFGGGTKLEIK
notes: as for B3
B13: 40A5B2 (antibody, V domains shown)
VH: EVQLQQSGPELVKPGASVKMSCKASGYTFTRNIMHWVKQKPGQGLEWIGYINPYNAGSKYNEKFKGKATLTSDISSSTAYMELSSLTSEDSAVYYCAREEVYYRYGAWFAYWGHGTLVTVSA
VL: DIVLTQSPASLAVSLGQRATISCRASQSVSTSSYSYMHWYQQKPGQPPKLLIKYASNLESGVPARFSGSGSGTDFTLNIHPVEEEDTATYYCQHSWEIPRTFGGGTKLEIK
notes: as for B3
B14: 14C2A11C6 (antibody, V domains shown)
VH: QVHLQQSGAELARPGASVKMSCKASGYTFTTYTMHWVKQRPGQGLEWIGYINPNSAYTNYNQKFKDKATLTADKSSSTAYMQLSSLTSEDSAVYYCARRVLLLRVLDFFDYWGQGTTLTVSS
VL: DVQITQSPSYLAASPGETITINCRASKSINKYLTWYQEKPGKTNKLLIYSGSTLQSGIPSRFSGSGSGSDFTLTISSLEPEDFAMYYCQQHNEYPLTFGTGTKLELK
notes: murine antibody from hybridoma supernatant; also called 14C2A1106
B15: 6G10D9 (antibody, V domains shown)
VH: QVQLQQSGAELARPGASVKMSCKASGYTFTTYTMHWVKQRPGQGLEWLGYINPSSGYTNYNQKFKDKATLTAGKSSSTAYMQLSSLTSEDSAVYYCASLRSRGYFDYWGQGTTLTVSS
VL: DIVMTQSQTFMSTSVGDRVRITCKASQNVGTAVVWYQQKTGQSPRLLIYSASNRYTGVPDRFTGSGSGTDFTLTISNMQSEDLADFFCQQYSSYPYTFGGGTKLEIK
notes: as for B3
B16: 38A10E9A11 (antibody, V domains shown)
VH: QVQLQQSGAELARPGASVKMSCKASGYTFTTYTMHWVKQRPGQGLEWIGYINPSSGYTNYNQKFKDKATLTAGKSSSTAYMQLSSLTSEDSAVYYCASLRSRGYFDYWGRGTTLTVSS
VL: DIVMTQSQKFLSTSVGDRVSITCKASQNVGTAVAWYQQKPGQSPKLLIYSASNRYTGVPDRFTGSGSGTDFTLTISNMQSEDLAGYFCQQYSSYPYTFGGGTKLEIK
notes: as for B3

T1 sequence (Q9NZD1 whole entry): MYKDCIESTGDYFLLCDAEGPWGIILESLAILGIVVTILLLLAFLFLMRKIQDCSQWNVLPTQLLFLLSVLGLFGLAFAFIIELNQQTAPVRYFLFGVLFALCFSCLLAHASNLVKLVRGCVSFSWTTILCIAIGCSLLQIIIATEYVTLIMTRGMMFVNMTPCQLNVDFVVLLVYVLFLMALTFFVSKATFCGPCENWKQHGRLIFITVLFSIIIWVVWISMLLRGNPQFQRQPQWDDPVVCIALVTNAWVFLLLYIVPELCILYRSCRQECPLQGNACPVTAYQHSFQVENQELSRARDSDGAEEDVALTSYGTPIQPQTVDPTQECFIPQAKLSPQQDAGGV

The first test has as its target T1, human G-protein-coupled receptor family C group 5 member D (GPRC5D) (human, UniProt Q9NZD1 1-345).
T1 construct: whole, on cells; also called human GPRC5D protein
As to the kind of experiment: FACS, CHO-K1/GPRC5D. A general note: In flow cytometry, cells or beads pass a laser one at a time.
The molecule B1 yielded a Bottom of 4840, a LogEC50 of 0.345, a Span of 103000 and a Top of 108000.
On the same counts, the results for B2 are 5500, 0.263, 109000 and 114000.

For the next test, the target named is T1, human G-protein-coupled receptor family …. Put plainly: FACS, CHO-K1/human GPRC5D, hybridoma supernatant. As for the experimental part:
Antibodies harvested from the supernatants of the hybridomas were tested for their binding to the human GPRC5D protein expressed on CHO K1 cells was tested. CHO—K1 cells stably expressed human GPRC5D, were harvested from flasks. 100 µl of 1×10^6 cells/ml of cells were incubated with murine antibodies in 3-fold serial dilutions for 30 minutes on ice. After being washed with 200 µl of FACS buffer twice, cells were incubated with secondary antibody for 30 minutes on ice. Cells were washed with 200 µl of FACS buffer twice and transferred to BD Falcon 5 ml tube and analyzed by FACS.
B3 registered a Bottom of -13300, a LogEC50 of 0.884, a Span of 1.43e+06 and a Top of 1.41e+06.
The molecule B4 displayed a Bottom of 10900, a LogEC50 of 0.592, a Span of 1.75e+06 and a Top of 1.76e+06.
Molecule B5 displayed a Bottom of -14700, a LogEC50 of 0.964, a Span of 2.07e+06 and a Top of 2.05e+06.
Take B6: the Bottom worked out at 46100, the LogEC50 came to 0.454, the Span is 789000 and the Top turned out to be 835000.
With B7, the Bottom is 57000, the LogEC50 stood at 0.654, the Span was 1.45e+06 and the Top amounted to 1.51e+06.
For B8 the same measures were 2740, 1.02, 919000 and 922000.
On the same counts, the results for B9 are 68600, 0.62, 1.54e+06 and 1.61e+06.
On the same counts, the results for B10 are 43400, 0.738, 1.42e+06 and 1.46e+06.
Molecule B11 gave a Bottom of 20400, a LogEC50 of 0.874, a Span of 852000 and a Top of 873000.
The molecule B12 yielded a Bottom of 52700, a LogEC50 of 0.225, a Span of 625000 and a Top of 678000.
On the same counts, the results for B13 are 25400, 0.511, 1.17e+06 and 1.2e+06.
For the molecule B14, the Bottom came out at 5570, the LogEC50 came to 0.993, the Span is 723000 and the Top stood at 729000.
With B15, the Bottom was 6870, the LogEC50 amounted to 0.912, the Span amounted to 1.42e+06 and the Top was 1.43e+06.
For B16 the same measures were 24000, 0.947, 1.76e+06 and 1.79e+06.
